Assay results: US20200155571A1, “Topically Active Steroids for Use in Radiation and Chemotherapeutics Injury” (Soligenix, Inc., priority 2008, published 2020)

Key:
[1] = cited from earlier work
[2] = tested on: dogs given high dose total body irradiation (TBI); assay: Survival of dogs after high dose TBI (GI radiation syndrome) with autologous marrow and supportive care; assay type: in vivo, dog; settings: TBI dose giving >80% lethality; monitored up to 30 days; KGF 100 μg/kg/day iv or BDP 4 mg/day from 2 hours after TBI until GI recovery
From the text: The dog is a particularly suitable animal model for studying radiations damage to epithelial tissue. […] To evaluate the response to TBI given at the high dose rate of 0.4 Gy/min or 0.7 Gy/min, treatment groups were given single-fraction 6, 7, 8 or 10 Gy TBI and received previously cryopreserved autologous marrow infusion upon completion of the TBI and standard supportive care. At doses of TBI below 8 Gy, all dogs survived. After 8 Gy TBI, 5 of 9 dogs died and after 10 Gy TBI, 9 of 9 dogs died from GI radiation syndrome. All deaths occurred between days 4 to day 6 after 10 Gy TBI. All deaths were attributable due to GI radiation toxicity with severe gut hemorrhage and intestinal crypt damage, as well as denudation of gut epithelium and focal necrosis in the intestines. Despite antibiotic treatment, blood cultures obtained near the time of death were positive for gram negative organisms in 4 dogs, consistent with entry of pathogens through the GI tract. […]
Dogs were monitored for survival up to 30 days after initiation of TBI (primary endpoint of the experiment). […] Dogs were also followed with daily CBCs until recovery and assessed for immune function recovery. […]

[3] = rats, cited from earlier work
[4] = biological target: T1, glucocorticoid receptor (Homo sapiens, UniProt P04150); settings: as fraction of the binding affinity of dexamethasone; cited from earlier work
T1 sequence (P04150 1-777): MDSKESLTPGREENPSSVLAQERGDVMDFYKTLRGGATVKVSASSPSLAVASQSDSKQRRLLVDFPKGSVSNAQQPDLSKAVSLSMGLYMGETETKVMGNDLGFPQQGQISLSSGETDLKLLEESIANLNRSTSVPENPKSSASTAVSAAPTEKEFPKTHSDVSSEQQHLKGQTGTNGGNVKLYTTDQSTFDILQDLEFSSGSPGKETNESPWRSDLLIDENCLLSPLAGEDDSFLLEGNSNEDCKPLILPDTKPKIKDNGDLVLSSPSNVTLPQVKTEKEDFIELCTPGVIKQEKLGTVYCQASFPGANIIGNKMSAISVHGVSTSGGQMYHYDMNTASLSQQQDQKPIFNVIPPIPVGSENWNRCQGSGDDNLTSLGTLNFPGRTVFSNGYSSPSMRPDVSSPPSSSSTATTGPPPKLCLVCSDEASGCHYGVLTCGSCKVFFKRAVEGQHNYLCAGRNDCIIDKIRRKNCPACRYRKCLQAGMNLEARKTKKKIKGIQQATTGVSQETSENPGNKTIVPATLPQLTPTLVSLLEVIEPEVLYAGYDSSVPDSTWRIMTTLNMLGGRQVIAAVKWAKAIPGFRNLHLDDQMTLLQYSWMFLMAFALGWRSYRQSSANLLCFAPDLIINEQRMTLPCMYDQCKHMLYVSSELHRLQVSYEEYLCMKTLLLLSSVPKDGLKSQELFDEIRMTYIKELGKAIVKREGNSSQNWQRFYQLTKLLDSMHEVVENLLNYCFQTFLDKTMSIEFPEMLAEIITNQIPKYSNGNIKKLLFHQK

[5] = 17-BMP after BDP administration, estimated; cited from earlier work
[6] = tested on: oral mucositis after high-dose radiation; settings: cited from earlier work
[7] = tested on: non-irradiated dogs; assay: rhKGF in non-irradiated dogs, necropsy of gut; assay type: in vivo, dog; settings: rhKGF 100 μg/kg/day for 14 and 21 days
Method: Three non-irradiated dogs were given rhKGF 100 μg/kg/day for 7, 14 and 21 days, respectively. Twenty-four hours after the last dose of KGF, dogs were euthanized and underwent complete necropsy.

[8] = tested on: dogs given total body irradiation (TBI); assay: Survival and hematopoietic recovery of dogs after TBI with cytokine treatment; assay type: in vivo, dog
Method: Supportive care consisted of the following: (a) intravenous antibiotics, ampicillin and amikacin and oral nonreabsorbable polymixin/neomycin administered without change in drug regimen until recovery of absolute neutrophil count (ANC)>1000/μL; (b) transfusions with irradiated whole blood (50 mL blood per transfusion) for platelet counts below 10,000/μL; and (c) subcutaneous fluids 20 ml/kg given daily for the first 5 days after TBI.
After TBI exposure, all dogs were treated with an oral fluoroquinolone, enrofloxacin. Core body temperature was measured at least twice daily. If fever developed or when ANC falls below <100/μL, dogs are empirically treated with the combination of intravenous third-generation cephalosporin (ceftazidime) and the aminoglycoside amikacin. Blood cultures are obtained when dogs develop fever and antibiotic treatment is adjusted based on blood culture results. If blood culture negative neutropenic fever persists for 48 hours, or if clinical condition objectively worsens, additional empiric antibiotic treatment with metronidazole and vancomycin is added. Although the new antibiotic regimen is more complicated compared with the historical treatment, it reflects improved broad spectrum coverage against gram negative, gram positive and anaerobic pathogens. Furthermore, blood transfusion support is more intensive now with larger volume of whole blood transfusion, based on body weight with 10-15 mL blood/kg/transfusion. The use of intravenous fluid support (10-30 mL/kg/day Lactated Ringers solution) is extended for at least 14 additional days until there is full recovery of oral food intake.
New supportive care measures have shown a significant improvement in survival after TBI. Following 4 Gy TBI (0.07 Gy/min, Varian Clinac 4/80 linear accelerator source), 4 of 4 dogs survived and recovered hematopoiesis with a median time to ANC and platelet recovery of 27 and 41 days, respectively. ANC recovery was defined as the first day of sustained neutrophil counts >500/μL and platelet recovery was defined as the first day of transfusion-independent sustained recovery of >40,000/μL. After 5 Gy TBI, 3 of 6 dogs survived with supportive care only. Deaths occurred at days 14, 15 and 21, respectively, after TBI and were due to neutropenic sepsis or pneumonia and not from the GI radiation syndrome. Among surviving dogs, the median time to ANC and platelet recovery was 29 and 44 days, respectively. After 6 Gy TBI, 5 of 6 dogs survived given supportive care only. One death occurred on day 22 due to neutropenic sepsis. The median time to ANC and platelet recovery was 34 and 74 days, respectively. After 7 Gy TBI and supportive care only, 5 of 6 dogs survived, with one death on day 22 due to neutropenic sepsis. […] As of Apr. 18, 2007, the remaining three dogs in this cohort remain transfusion-dependent at 66 to 95 days after TBI. […] Because of the improved survival of dogs after TBI given optimal supportive care in the current AI-066498 studies, we have not yet reached the 99% lethal dose of TBI threshold.
Although supportive care without cytokine support results in improved survival, cytokine treatment given after TBI aimed at recovery of the hematopoietic system also improves outcome and decreased the need for prolonged, intensive (and expensive) supportive care. Historical results in the dog model by our research group included studies which established that both recombinant canine (rc) and recombinant human (rh) G-CSF given after an otherwise lethal dose of 4 Gy TBI prevented death from radiation induced cytopenia. In the 1980's and early 1990's, after 4 Gy TBI and supportive care alone, only 1 of 28 dogs survived with recovery of hematopoiesis. In contrast, when G-CSF was given daily for 21 days after 4 Gy TBI, 8 of 10 dogs survived. […] These studies helped to establish the current clinical guidelines for the treatment of victims of radiation accidents. […]

beclomethasone 17,21-dipropionate [BDP]
half-life in simulated intestinal fluid [1]: 2.1 min
survival after TBI [2]: greater than 70%
half-life of unchanged BDP in plasma ([3]; intravenous administration of 3H-BDP): 3 to 4 min
presence in plasma following oral administration of 3H-BDP [3]: not detected

CCC(=O)OCC(=O)[C@@]1(O)[C@@H](C)C[C@H]2[C@@H]3CCC4=CC(=O)C=C[C@]4(C)[C@@]3(Cl)[C@@H](O)C[C@@]21C [21-BMP]
glucocorticoid receptor binding affinity, in words [4]: no apparent affinity

CCC(=O)O[C@]1(C(=O)CO)[C@@H](C)C[C@H]2[C@@H]3CCC4=CC(=O)C=C[C@]4(C)[C@@]3(Cl)[C@@H](O)C[C@@]21C [17-BMP, 17-beclomethasone mono-propionate]
half-life in simulated intestinal fluid [1]: 720 min
absolute oral bioavailability [5]: 21-41%
presence in plasma following oral administration of 3H-BDP [3]: found in the plasma

B1: KGF: keratinocyte growth factor, recombinant human; binds the KGF receptor on epithelial tissues (protein, UniProt P21781 32-194, looked up)
Fibroblast growth factor 7: CNDMTPEQMATNVNCSSPERHTRSYDYMEGGDIRVRRLFCRTQWYLRIDKRGKVKGTQEMKNNYNIMEIRTVAVGIVAIKGVESEFYLAMNKEGKLYAKKECNEDCNFKELILENHYNTYASAKWTHNGGEMFVALNQKGIPVRGKKTKKEQKTAHFLPMAIT
duration of mucositis ([6]; rhKGF 60 μg/kg/day for 3 days prior to 12 Gy fractionated TBI and 3 days after autologous PBSC infusion, placebo 10.4 days, p<0.001): 3.4 days
incidence of febrile neutropenia ([6]; same trial, placebo 46%): 26%
mean days of febrile neutropenia ([6]; same trial, placebo 4.6 days): 2.6 days
survival after TBI [2]: ≥ 70%
effect on Peyer's patches in the ileum [7]: dramatic increase in the size and cellularity of Peyer's patches
effect on villi in the jejunum [7]: dramatic increase in size of villi

B2: G-CSF: cytokine granulocyte colony stimulating factor, recombinant canine or human (protein, UniProt P09919 31-207, looked up)
Granulocyte …: TPLGPASSLPQSFLLKCLEQVRKIQGDGAALQEKLVSECATYKLCHPEELVLLGHSLGIPWAPLSSCPSQALQLAGCLSQLHSGLFLYQGLLQALEGISPELGPTLDTLQLDVADFATTIWQQMEELGMAPALQPTQGAMPAFASAFQRRAGGVLVASHLQSFLEVSYRVLRHLAQP
survival ([8]; 4 Gy TBI, G-CSF daily for 21 days, historical results, supportive care alone 1 of 28): 8 of 10
survival ([8]; 5 Gy TBI, 10 μg/kg/day starting 2 hours after irradiation, new supportive care): 6 of 6
survival ([8]; 5 Gy TBI, G-CSF, historical results): 3 of 10
median time to ANC recovery ([8]; 5 Gy TBI, ANC >500/μL): 20 days
median time to platelet recovery ([8]; 5 Gy TBI, platelets >40,000/μL): 44 days
median time to ANC recovery ([8]; 6 Gy TBI): 26 days
median time to platelet recovery ([8]; 6 Gy TBI): 61 days
survival ([8]; 6 Gy TBI, G-CSF 10 μg/kg/day, FL 100 μg/kg/day): 5 of 6
